# T1: IL-12/23 p40 (Sino biological, 10052-H08H) (UniProt P29460 23-328)
# T1 construct: Bought protein
# T1 sequence (looked up): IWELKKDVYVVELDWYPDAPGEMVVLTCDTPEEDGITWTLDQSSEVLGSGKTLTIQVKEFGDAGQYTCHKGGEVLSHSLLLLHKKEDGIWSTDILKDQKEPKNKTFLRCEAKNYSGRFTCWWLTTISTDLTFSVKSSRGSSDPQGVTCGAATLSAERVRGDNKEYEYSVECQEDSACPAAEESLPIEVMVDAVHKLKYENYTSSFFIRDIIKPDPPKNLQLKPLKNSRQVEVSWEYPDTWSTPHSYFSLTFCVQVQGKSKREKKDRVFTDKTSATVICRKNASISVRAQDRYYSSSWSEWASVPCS
# T2: human APRIL (5860-AP-010/CF, R&D Systems) (human, UniProt O75888 115-250, limits assumed)
# T2 sequence (looked up): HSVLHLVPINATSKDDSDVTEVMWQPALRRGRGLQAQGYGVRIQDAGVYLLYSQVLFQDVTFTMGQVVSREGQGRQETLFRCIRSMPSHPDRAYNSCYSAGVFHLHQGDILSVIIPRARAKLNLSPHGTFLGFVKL
# Experiments:
# [1] = molecular target: T1, IL-12/23 p40 (Sino biological, …); assay: ELISA, IL-12/23 p40 coated
# [2] = molecular target: T2, human APRIL (5860-AP-010/CF, R&D …); assay: cell-based or functional assay
# [3] = molecular target: T3, human BAFF (10056-HNCH, Sino biological) (human, UniProt Q9Y275 134-285); assay: ELISA, BAFF coated, sample titrated
# T3 construct: Bought protein
# Protocol: The binding activity of the antibodies or fusion proteins for BAFF, APRIL, and IL-12/23 p40 was assayed by the ELISA method (coating an antigen protein). The specific procedures were as follows:
# A BAFF (Sino biological, 10056-HNCH), APRIL (R&D Systems, 5860-AP-010/CF), or IL-12/23 p40 (Sino biological, 10052-H08H) protein was diluted to 1 μg/mL with a PBS (BasalMedia, B320) buffer at pH 7.4, and added to a 96-well microplate (Corning, 3590) at 100 μL/well. The plate was incubated at 4° C. overnight. After the liquid was discarded, 300 μL of 5% skim milk (BD, 232100) diluted with PBS was added to each well for blocking, and the plate was incubated at 37° C. for 2 h. After the blocking was completed, the blocking solution was discarded, and the plate was washed 3 times with a PBST buffer (PBS at pH 7.4 containing 0.1% tween-20). 100 μL of test antibody or fusion protein solution diluted in a gradient was added to each well, and the plate was incubated at 37° C. for 1 h. After the incubation was completed, the plate was washed 3 times with PBST. […] The plate was washed 3 times with PBST. […] The plate was read for absorbance values at 450 nm on a microplate reader, the binding curves of the antibodies to an antigen were fitted with software, and the EC₅₀ values were calculated.
# [4] = molecular target: BAFF (R&D Systems, 7537-BF) (UniProt Q9Y275 134-285); assay: cell-based or functional assay
# [5] = molecular target: T3, human BAFF (10056-HNCH, Sino biological); assay: SPR (Biacore), sample captured on Protein A, antigen flowed, 1:1 fit
# [6] = molecular target: T2, human APRIL (5860-AP-010/CF, R&D …); assay: competition ELISA: biotin-labeled APRIL to coated BCMA
# Protocol: A receptor protein was diluted to 2 μg/mL with PBS at pH 7.4 (BasalMedia, B320) and added to a 96-well microplate (Corning, 3590) at 100 μL/well. The plate was incubated at 4° C. overnight. After the liquid was discarded, 200 μL of 1% Casein blocking solution (Thermo, 37528) was added to each well for blocking, and the plate was incubated at 37° C. for 2 h. After the blocking was completed, the blocking solution was discarded, and the plate was washed 3 times with a PBST buffer (PBS at pH 7.4 containing 0.1% tween-20) for later use. A biotin-labeled ligand protein at a fixed concentration was mixed with the antibody or fusion protein diluted in gradient, pre-incubated at 37° C. for 30 min, and added to a blocked microplate. The plate was incubated at 37° C. for 1.5 h. After the incubation was completed, the plate was washed 3 times with PBST. 100 μL of streptavidin-HRP (Invitrogen, 434323, diluted at a ratio of 1:4000) was added to each well, and the plate was incubated at 37° C. for 1 h. The supernatant was removed, and the plate was washed 3 times with PBST. […] The plate was read for absorbance values at 450 nm on a microplate reader, the curves for the inhibition of the binding of the ligands to the receptors were fitted with software, and the IC₅₀ values were calculated. […]
binder,measurement,setting,value
"RCT-18 (Telitacicept) (Fc fusion, Positive control; TACI part is positions 13-118 of the extracellular region of human TACI, the rest is Fc) SRVDQEERFPQGLWTGVAMRSCPEEQYWDPLLGTCMSCKTICNHQSQRTCAAFCRSLSCRKEQGKFYDHLLRDCISCASICGQHPKQCAYFCENKLRSPVNLPPELDKTHTCPPCPAPEAEGAPSVFLFPPKPKDTLMISRTPEVTCVVVDVSHEDPEVKFNWYVDGVEVHNAKTKPREEQYNSTYRVVSVLTVLHQDWLNGKEYKCKVSNKALPSSIEKTISKAKGQPREPQVYTLPPSRDELTKNQVSLTCLVKGFYPSDIAVEWESNGQPENNYKTTPPVLDSDGSFFLYSKLTVDKSRWQQGNVFSCSVMHEALHNHYTQKSLSLSPGK",binding result,[1],no binding
same,IC50 (nM) for the inhibition of the APRIL-induced B cell proliferation,[2],1.09 nM
same,EC50,[3],6.71 nM
same,IC50 (nM) for the inhibition of the BAFF-induced B cell proliferation,[4],0.386 nM
same,Kd,[5],0.186 nM
same,koff,[5],0.00018 s⁻¹
same,kon,[5],964000 M⁻¹ s⁻¹
same,IC50,[6],25.1 nM

# Source: patent publication US20240301031A1 (JIANGSU HENGRUI PHARMACEUTICALS, published 2024)
